Measured values reported in patent publication US11352401.

B1: KSSVIASLLF (SEQ ID NO: 33) (peptide)
peptide: KSSVIASLLF
B2: KQMEDGHTLF (SEQ ID NO: 36) (peptide)
peptide: KQMEDGHTLF
B3: VFQEKHHVI (SEQ ID NO: 380) (peptide)
peptide: VFQEKHHVI
B4: YYADKKTFIVL (SEQ ID NO: 17) (peptide)
peptide: YYADKKTFIVL
B5: TYNPDFSSL (SEQ ID NO: 16) (peptide)
peptide: TYNPDFSSL
B6: NYIVPDKQIF (SEQ ID NO: 379) (peptide)
peptide: NYIVPDKQIF
B7: SYEVRSTF (SEQ ID NO: 21) (peptide)
peptide: SYEVRSTF
B8: RWLPQKNAAQF (SEQ ID NO: 387) (peptide)
peptide: RWLPQKNAAQF
B9: WYGWHFPEL (SEQ ID NO: 76) (peptide)
peptide: WYGWHFPEL
B10: TYLSIFDQL (SEQ ID NO: 60) (peptide)
peptide: TYLSIFDQL
B11: QYEPPSAPSTTF (SEQ ID NO: 40) (peptide)
peptide: QYEPPSAPSTTF
B12: NYAENILTL (SEQ ID NO: 61) (peptide)
peptide: NYAENILTL
B13: VQQWSVAVF (SEQ ID NO: 7) (peptide)
peptide: VQQWSVAVF
B14: LLIKLLQTF (SEQ ID NO: 54) (peptide)
peptide: LLIKLLQTF
B15: IYHSHHPTL (SEQ ID NO: 382) (peptide)
peptide: IYHSHHPTL
B16: SYSSCYSF (SEQ ID NO: 14) (peptide)
peptide: SYSSCYSF
B17: SYIGLPLTL (SEQ ID NO: 73) (peptide)
peptide: SYIGLPLTL
B18: RYKQDVERF (SEQ ID NO: 383) (peptide)
peptide: RYKQDVERF
B19: VPLPAGGGTV (SEQ ID NO: 229) (peptide)
peptide: VPLPAGGGTV
B20: APREEQQRSL (SEQ ID NO: 287) (peptide)
peptide: APREEQQRSL
B21: SPARASPAL (SEQ ID NO: 279) (peptide)
peptide: SPARASPAL
B22: MPLPWSLALP (SEQ ID NO: 271) (peptide)
peptide: MPLPWSLALP
B23: YPQHPGLNA (SEQ ID NO: 260) (peptide)
peptide: YPQHPGLNA
B24: VPISEEGTPVL (SEQ ID NO: 280) (peptide)
peptide: VPISEEGTPVL
B25: NPFYPEVEL (SEQ ID NO: 222) (peptide)
peptide: NPFYPEVEL
B26: VPLPAGGGTVL (SEQ ID NO: 230) (peptide)
peptide: VPLPAGGGTVL
B27: TPYQEHVAL (SEQ ID NO: 274) (peptide)
peptide: TPYQEHVAL
B28: RPMQQARAQL (SEQ ID NO: 459) (peptide)
peptide: RPMQQARAQL
B29: APHPPLSVV (SEQ ID NO: 275) (peptide)
peptide: APHPPLSVV
B30: RPAATAVISL (SEQ ID NO: 237) (peptide)
peptide: RPAATAVISL
B31: RALLARLLL (SEQ ID NO: 247) (peptide)
peptide: RALLARLLL
B32: APSARVGVC (SEQ ID NO: 261) (peptide)
peptide: APSARVGVC
B33: SPQRLRGLLL (SEQ ID NO: 292) (peptide)
peptide: SPQRLRGLLL
B34: LPRAGGAFL (SEQ ID NO: 276) (peptide)
peptide: LPRAGGAFL
B35: MPQIETRVIL (SEQ ID NO: 282) (peptide)
peptide: MPQIETRVIL
B36: RIREHVPQL (SEQ ID NO: 245) (peptide)
peptide: RIREHVPQL
B37: RVIDAVRFTL (SEQ ID NO: 253) (peptide)
peptide: RVIDAVRFTL
B38: SLDGAARPK (SEQ ID NO: 205) (peptide)
peptide: SLDGAARPK
B39: MMFSGPQILKL (SEQ ID NO: 215) (peptide)
peptide: MMFSGPQILKL
B40: GLASRILDAK (SEQ ID NO: 208) (peptide)
peptide: GLASRILDAK
B41: RIADIFVKK (SEQ ID NO: 455) (peptide)
peptide: RIADIFVKK
B42: AINTSIKNK (SEQ ID NO: 453) (peptide)
peptide: AINTSIKNK
B43: KAYEQVMHY (SEQ ID NO: 212) (peptide)
peptide: KAYEQVMHY
B44: RILNQILYY (SEQ ID NO: 217) (peptide)
peptide: RILNQILYY
B45: GIADFVLKY (SEQ ID NO: 458) (peptide)
peptide: GIADFVLKY
B46: RSFNGLLTMY (SEQ ID NO: 207) (peptide)
peptide: RSFNGLLTMY
B47: TVNPVAIHK (SEQ ID NO: 211) (peptide)
peptide: TVNPVAIHK
B48: KLIDLSQVMY (SEQ ID NO: 206) (peptide)
peptide: KLIDLSQVMY
B49: SINKPTSER (SEQ ID NO: 457) (peptide)
peptide: SINKPTSER
B50: RLRSSLVFK (SEQ ID NO: 219) (peptide)
peptide: RLRSSLVFK
B51: ATSGVPVYK (SEQ ID NO: 210) (peptide)
peptide: ATSGVPVYK
B52: RTMSEAALVRK (SEQ ID NO: 214) (peptide)
peptide: RTMSEAALVRK
B53: RTQIPMSEK (SEQ ID NO: 209) (peptide)
peptide: RTQIPMSEK
B54: SMFTAILKK (SEQ ID NO: 456) (peptide)
peptide: SMFTAILKK
B55: KVYTPSISK (SEQ ID NO: 454) (peptide)
peptide: KVYTPSISK
B56: ALKLRVAVL (SEQ ID NO: 305) (peptide)
peptide: ALKLRVAVL
B57: EAAIRSVEL (SEQ ID NO: 318) (peptide)
peptide: EAAIRSVEL
B58: LPFPKFTV (SEQ ID NO: 303) (peptide)
peptide: LPFPKFTV
B59: ELKKLYCQI (SEQ ID NO: 304) (peptide)
peptide: ELKKLYCQI
B60: ELKKKEYEEL (SEQ ID NO: 313) (peptide)
peptide: ELKKKEYEEL
B61: LVKVKVLL (SEQ ID NO: 317) (peptide)
peptide: LVKVKVLL
B62: LPPKKFVL (SEQ ID NO: 310) (peptide)
peptide: LPPKKFVL
B63: AIISRLVAL (SEQ ID NO: 314) (peptide)
peptide: AIISRLVAL
B64: ILLPRTVSL (SEQ ID NO: 307) (peptide)
peptide: ILLPRTVSL
B65: RAQLKLVAL (SEQ ID NO: 297) (peptide)
peptide: RAQLKLVAL
B66: YMHKLLVL (SEQ ID NO: 301) (peptide)
peptide: YMHKLLVL
B67: EAMLRNKEL (SEQ ID NO: 312) (peptide)
peptide: EAMLRNKEL
B68: EIRIRVVQM (SEQ ID NO: 311) (peptide)
peptide: EIRIRVVQM
B69: ILKVKVGL (SEQ ID NO: 306) (peptide)
peptide: ILKVKVGL
B70: MPMQDIKM (SEQ ID NO: 296) (peptide)
peptide: MPMQDIKM
B71: MLKQKVEEL (SEQ ID NO: 308) (peptide)
peptide: MLKQKVEEL
B72: DIYQRALNL (SEQ ID NO: 315) (peptide)
peptide: DIYQRALNL
B73: MAQFKEISL (SEQ ID NO: 299) (peptide)
peptide: MAQFKEISL

What follows are binders tested against T1, HLA-A*24 (human) (assay: UV peptide-exchange ELISA; +++ = yield >50%).
T1 construct: MHC monomer made peptide-receptive by UV cleavage of a UV-sensitive ligand; also called peptide-receptive MHC class I monomer

peptide exchange yield | Binder
50 to 75% | B1
50 to 75% | B2
50 to 75% | B3
50 to 75% | B4
50 to 75% | B5
50 to 75% | B6
50 to 75% | B7
50 to 75% | B8
50 to 75% | B9
50 to 75% | B10
50 to 75% | B11
50 to 75% | B12
50 to 75% | B13
50 to 75% | B14
50 to 75% | B15
50 to 75% | B16
50 to 75% | B17
50 to 75% | B18

The binders below were run against T2, HLA-B*07 (human) (assay: UV peptide-exchange ELISA; +++ = yield >50%).
T2 construct: MHC monomer made peptide-receptive by UV cleavage of a UV-sensitive ligand; also called peptide-receptive MHC class I monomer

peptide exchange yield | Binder
50 to 75% | B19
50 to 75% | B20
50 to 75% | B21
50 to 75% | B22
50 to 75% | B23
50 to 75% | B24
50 to 75% | B25
50 to 75% | B26
50 to 75% | B27
50 to 75% | B28
50 to 75% | B29
50 to 75% | B30
50 to 75% | B31
50 to 75% | B32
50 to 75% | B33
50 to 75% | B34
50 to 75% | B35
50 to 75% | B36
50 to 75% | B37

The binders below were run against T3, HLA-A*03 (human) (assay: UV peptide-exchange ELISA; ++++ = yield >75%).
T3 construct: MHC monomer made peptide-receptive by UV cleavage of a UV-sensitive ligand; also called peptide-receptive MHC class I monomer

peptide exchange yield | Binder
> 75% | B38
> 75% | B39
> 75% | B40
> 75% | B41
> 75% | B42
> 75% | B43
> 75% | B44
> 75% | B45
> 75% | B46
> 75% | B47
> 75% | B48
> 75% | B49
> 75% | B50
> 75% | B51
> 75% | B52
> 75% | B53
> 75% | B54
> 75% | B55

The binders below were run against T4, HLA-B*08 (human) (assay: UV peptide-exchange ELISA; ++++ = yield >75%).
T4 construct: MHC monomer made peptide-receptive by UV cleavage of a UV-sensitive ligand; also called peptide-receptive MHC class I monomer

peptide exchange yield | Binder
> 75% | B56
> 75% | B57
> 75% | B58
> 75% | B59
> 75% | B60
> 75% | B61
> 75% | B62
> 75% | B63
> 75% | B64
> 75% | B65
> 75% | B66
> 75% | B67
> 75% | B68
> 75% | B69
> 75% | B70
> 75% | B71
> 75% | B72
> 75% | B73
